From US8785384B2, “Peptide synthesis” (Chemical & Biopharmaceutical Laboratories of Patras, priority 2010, dated 2014)
Where no end group is shown, it is not given here. [ ]: non-standard residue; d: D form. Met(O) = CS(=O)CC[C@H](N)C(=O)O

How the values were obtained:
[1] = background statement on earlier attempts at synthetic human relaxins; cited from earlier work
[2] = Solubility of relaxin B-chains (methionine sulphoxide vs non-oxidised); format: physicochemical, human; details: compared with RLX1B and RLX2B respectively / non-oxidised analogue

| Substance | solubility of non-oxidised B-chain [1] | solubility relative to the corresponding non-oxidised B-chain [2] |
| --- | --- | --- |
| RLX2B: Chain B of human relaxin-2, SEQ ID NO: 5 | highly insoluble or hydrophobic |  |
| RLX1B: Chain B of human relaxin-1, SEQ ID NO: 3 (KWKDDVIKLCGRELVRAQIAICGMSTWS; listed as Homo sapiens) | highly insoluble or hydrophobic |  |
| Met(O)^24-RLX1B: Met(O)^24-human relaxin 1 B-chain, SEQ ID NO: 6; linear (compound 9) or cyclic (compound 10) form not specified (KWKDDVIKLCGRELVRAQIAICG[Met(O)]STWS; not fully specified; cysteine pairing not given here; listed as Homo sapiens) |  | higher solubility |
| Met(O)^25-RLX2B: Met(O)^25-human relaxin 2 B-chain, SEQ ID NO: 7; linear (compound 13) or cyclic (compound 14) form not specified |  | higher solubility |
